Measurements taken from the Human Domainome abundance scans (Beltran et al. 2025).
± gives the uncertainty stated by the source.

B1: Max-interacting protein 1, residues 70 to 120; numbered along this chain, P50539 (parent)
chain: STHNELEKNRRAHLRLCLERLKVLIPLGPDCTRHTTLGLLNKAKAHIKKLE
B2: Cyclin-F, residues 28 to 80; numbered along this chain, P41002 (parent)
chain: RNLTILSLPEDVLFHILKWLSVEDILAVRAVHSQLKDLVDNHASVWACASFQE

Variants of: B1
Experiment: abundance fitness (aPCA) (normalised: wild type 0, dead -1); higher = more abundant; growth selection in yeast, the domain comes from the species named
Conditions: Homo sapiens

Abundance fitness, by site and new letter:
A43: C -0.133 ± 0.1; H -0.828 ± 0.17; G -0.583 ± 0.085; W -0.303 ± 0.11
E7: M -0.173 ± 0.12; R -0.161 ± 0.086; F -0.273 ± 0.15; K 0.061 ± 0.13; D -0.184 ± 0.13
R15: W -0.27 ± 0.13
E51: T 0.462 ± 0.16; G 0.355 ± 0.15; C 0.207 ± 0.21; M 0.571 ± 0.46; W -0.059 ± 0.18; H 0.368 ± 0.28; S 0.615 ± 0.16; D -0.197 ± 0.25; V 0.271 ± 0.14; K 0.891 ± 0.5; I -0.459 ± 0.47
L6: T -0.025 ± 0.11; N -0.329 ± 0.31; F -0.228 ± 0.17; V -0.005 ± 0.093; D -0.066 ± 0.17; W -0.566 ± 0.096; H 0.519 ± 0.2; P 0.36 ± 0.16; R 0.172 ± 0.082; I -0.189 ± 0.2
A12: P -0.102 ± 0.12; W -0.193 ± 0.1; Q -0.305 ± 0.12; K -0.048 ± 0.12
L14: P -0.064 ± 0.12; A -0.197 ± 0.096; N -0.735 ± 0.24; E -0.645 ± 0.16; K -0.625 ± 0.16; H -0.143 ± 0.24
K48: N -0.675 ± 0.4; R -0.288 ± 0.087
S1: Y -0.444 ± 0.31
K8: E -0.291 ± 0.11; M -0.511 ± 0.14; F -0.236 ± 0.13; Q -0.492 ± 0.22; D -0.568 ± 0.13
R33: D -0.644 ± 0.14; G -0.257 ± 0.072; Q -0.116 ± 0.12; F -0.129 ± 0.12; H -0.247 ± 0.18
T36: C 0.085 ± 0.13; K -0.091 ± 0.15; G 0.134 ± 0.076; D -0.705 ± 0.13
E19: A -0.23 ± 0.088; S -0.083 ± 0.11; I -0.43 ± 0.24; P -0.358 ± 0.15; T -0.532 ± 0.11
H3: Q -0.023 ± 0.13; A -0.099 ± 0.1; N -0.162 ± 0.17; K 0.178 ± 0.14
G28: K 0.362 ± 0.11; H -0.147 ± 0.22; Q -0.092 ± 0.11
E5: Q -0.193 ± 0.12; M 0.119 ± 0.11
H13: S -0.085 ± 0.094; Y -0.04 ± 0.14; A -0.515 ± 0.097; P 0.064 ± 0.15; M -0.156 ± 0.12; G 0.124 ± 0.08
R11: W -0.257 ± 0.1; S -0.375 ± 0.12; A -0.547 ± 0.1; K 0.223 ± 0.11; D -0.19 ± 0.14; T -0.352 ± 0.12; V -0.509 ± 0.087
T35: F 0.198 ± 0.13; P -0.103 ± 0.1; C 0.019 ± 0.098; K 0.218 ± 0.14; S 0.025 ± 0.089; D -0.377 ± 0.14
N4: R -0.255 ± 0.093; H -0.381 ± 0.23; E -0.142 ± 0.17; I 0.278 ± 0.21; Y -0.547 ± 0.14; C -0.33 ± 0.13; D -0.134 ± 0.15; T 0.135 ± 0.13; Q 0.041 ± 0.15
K49: M -0.692 ± 0.13; L -0.386 ± 0.094; P -0.638 ± 0.11; T -0.701 ± 0.15
I47: P -1.06 ± 0.17; G -0.539 ± 0.09; S -0.653 ± 0.093; M -0.25 ± 0.1; T -0.61 ± 0.16; Q -0.931 ± 0.14; L 0.027 ± 0.09
H46: T 0.154 ± 0.14; G 0.108 ± 0.077; Q 0.305 ± 0.11; V 0.116 ± 0.097
C31: A 0.106 ± 0.081; K 0.334 ± 0.12; V 0.145 ± 0.079; Y -0.13 ± 0.12
R10: G -0.322 ± 0.083; H -0.068 ± 0.14; F -0.164 ± 0.13
G38: E -0.185 ± 0.1; F -0.584 ± 0.12; R -0.009 ± 0.078; I -0.486 ± 0.22
K22: L -0.639 ± 0.097; Q -1.02 ± 0.26; A -0.903 ± 0.15; V -0.926 ± 0.15; T -0.835 ± 0.14; Y -0.884 ± 0.36; F -0.759 ± 0.15
L39: K -0.881 ± 0.16; I -0.07 ± 0.13; H -1.15 ± 0.36; S -0.707 ± 0.11; C -0.588 ± 0.13; A -0.704 ± 0.15; R -0.879 ± 0.1; M -0.194 ± 0.11
L37: H -0.399 ± 0.25; S 0.06 ± 0.11; T 0.042 ± 0.13
A45: T -0.027 ± 0.14; E -0.136 ± 0.12; G -0.447 ± 0.085
T2: H -0.1 ± 0.081; C -0.415 ± 0.12; W -0.836 ± 0.19; V -0.663 ± 0.088; Q 0.161 ± 0.11; P -0.35 ± 0.078
L50: E -0.636 ± 0.12; D -0.423 ± 0.17; R -0.459 ± 0.1; P -0.353 ± 0.2; A -0.572 ± 0.11; W 0.023 ± 0.096; N -0.617 ± 0.33; V -0.616 ± 0.1
V23: E 0.096 ± 0.17; K 0.547 ± 0.13; F -0.191 ± 0.13
L40: Q -0.933 ± 0.19; Y -0.617 ± 0.33; M -0.098 ± 0.13; C -0.926 ± 0.16; D -1.13 ± 0.23; A -0.553 ± 0.11
L18: E -1.07 ± 0.2; P -0.542 ± 0.12; S -0.455 ± 0.1; Q -1.08 ± 0.18; A -0.275 ± 0.089; D -0.625 ± 0.2
D30: L 0.183 ± 0.071; A 0.095 ± 0.077; R 0.178 ± 0.079; P 0.128 ± 0.076
L16: G 0.274 ± 0.087; A -0.05 ± 0.1; V -0.058 ± 0.1; P -0.126 ± 0.14; Y -0.241 ± 0.17; H -0.55 ± 0.23
L21: V -0.669 ± 0.1; P -0.978 ± 0.22; K -0.739 ± 0.2; W -0.594 ± 0.12; T -0.832 ± 0.17
T32: M 0.546 ± 0.12; Y -0.174 ± 0.16; A 0.163 ± 0.086; Q -0.112 ± 0.16; R -0.137 ± 0.075; E -0.354 ± 0.096; C 0.268 ± 0.12
H34: I -0.225 ± 0.14; P -0.318 ± 0.15; N 0.052 ± 0.15; R 0.264 ± 0.074
N41: R -0.044 ± 0.1; V -0.707 ± 0.17; C -0.237 ± 0.17; W -0.83 ± 0.2; Y -0.745 ± 0.34; L -0.711 ± 0.18; I -0.631 ± 0.33; T -0.555 ± 0.2
L27: P 0.359 ± 0.11; Q -0.149 ± 0.14; D -0.512 ± 0.22; T 0.074 ± 0.11; A -0.006 ± 0.096; G 0.18 ± 0.082; E -0.423 ± 0.1
L24: K -0.294 ± 0.14; A -0.329 ± 0.099; N -0.715 ± 0.21; T -0.455 ± 0.13; R 0.013 ± 0.079; I 0.137 ± 0.23; P -0.938 ± 0.29; H -0.139 ± 0.15
P29: M 0.282 ± 0.15; R 0.216 ± 0.085; T 0.177 ± 0.12; H 0.262 ± 0.16; E -0.296 ± 0.13; K 0.44 ± 0.12
P26: I -1.18 ± 0.24; H 0.017 ± 0.17; N 0.063 ± 0.28; S 0.193 ± 0.1; G 0.278 ± 0.087
K42: F -0.256 ± 0.13; R -0.069 ± 0.076; W -0.23 ± 0.087; D -0.992 ± 0.18; H -0.813 ± 0.19; G -0.421 ± 0.08; L -0.641 ± 0.1
I25: F -0.141 ± 0.13; L -0.172 ± 0.09; T -0.562 ± 0.13; Q -0.561 ± 0.17; C 0.045 ± 0.14; D -0.852 ± 0.17; S -0.39 ± 0.091
C17: T -0.666 ± 0.13; M 0.123 ± 0.11; S -0.641 ± 0.1; N -0.536 ± 0.28; F 0.048 ± 0.14
R20: Y -0.884 ± 0.17; Q -0.405 ± 0.18; H -0.726 ± 0.27; S -0.576 ± 0.1; G -0.817 ± 0.1; T -0.377 ± 0.15; D -1.17 ± 0.28

Variants of: B2
Experiment: as above
Conditions: Homo sapiens

Abundance fitness of substitutions, site by site:
F51: E -0.38 ± 0.14; R -0.187 ± 0.09; A -0.138 ± 0.091; S -0.194 ± 0.11; K -0.202 ± 0.18; L 0.092 ± 0.096; Y -0.215 ± 0.24; H -0.123 ± 0.31; T -0.014 ± 0.11; W -0.279 ± 0.13; V -0.034 ± 0.083; I -0.111 ± 0.17; G -0.158 ± 0.079; M 0.085 ± 0.11; P -0.184 ± 0.15
E53: S -0.467 ± 0.22; D -0.178 ± 0.33; K 0.081 ± 0.26; V -0.538 ± 0.19; A -0.151 ± 0.17; H -0.878 ± 0.36; C -0.527 ± 0.41; F -0.582 ± 0.42; R -0.068 ± 0.15; G -0.069 ± 0.13; L -0.543 ± 0.42; Q -0.051 ± 0.26; I -0.533 ± 0.49; T -0.349 ± 0.25; M -0.39 ± 0.34; P -0.375 ± 0.34
S50: L -0.485 ± 0.099; V -0.621 ± 0.14; T -0.166 ± 0.13; H -0.319 ± 0.16; F -0.668 ± 0.11; D 0.029 ± 0.14; Y -0.369 ± 0.2; K -0.03 ± 0.13; N -0.394 ± 0.27; Q 0.105 ± 0.12; W -0.434 ± 0.098; P -0.1 ± 0.12; E -0.114 ± 0.16; M -0.483 ± 0.17
Q52: E -0.39 ± 0.22; P -0.377 ± 0.16; N -0.286 ± 0.19; V -0.123 ± 0.1; D -0.296 ± 0.27; H -0.108 ± 0.33; C -0.213 ± 0.2; K 0.011 ± 0.17; F -0.241 ± 0.22; T -0.135 ± 0.11; L -0.07 ± 0.097; Y -0.382 ± 0.24; M -0.256 ± 0.29; R -0.02 ± 0.1; I -0.109 ± 0.48; W -0.19 ± 0.18
A49: K 0.17 ± 0.13; V -0.609 ± 0.11; Y -0.341 ± 0.25; M -0.51 ± 0.18; R 0.037 ± 0.08; P 0.126 ± 0.13; W -0.443 ± 0.12; S 0.092 ± 0.078; L -0.395 ± 0.1; I -0.409 ± 0.23; Q 0.088 ± 0.15
